Reference: paper PMC3156789 (Biochemistry, 2011)

How the values were obtained:
c-Src = details: read-out: dissociation constant (KD) of the CSK/c-Src complex; surface plasmon resonance; ref [9] Levinson et al.; cited from earlier work
[1] = aqueous solution; size exclusion chromatography and sedimentation velocity; ref [24]; cited from earlier work
CHK = format: biochemical; details: in vitro

B1: CSK: C-terminal Src kinase (protein, UniProt P41240 2-450, looked up)
Tyrosine-protein kinase CSK: SAIQAAWPSGTECIAKYNFHGTAEQDLPFCKGDVLTIVAVTKDPNWYKAKNKVGREGIIPANYVQKREGVKAGTKLSLMPWFHGKITREQAERLLYPPETGLFLVRESTNYPGDYTLCVSCDGKVEHYRIMYHASKLSIDEEVYFENLMQLVEHYTSDADGLCTRLIKPKVMEGTVAAQDEFYRSGWALNMKELKLLQTIGKGEFGDVMLGDYRGNKVAVKCIKNDATAQAFLAEASVMTQLRHSNLVQLLGVIVEEKGGLYIVTEYMAKGSLVDYLRSRGRSVLGGDCLLKFSLDVCEAMEYLEGNNFVHRDLAARNVLVSEDNVAKVSDFGLTKEASSTQDTGKLPVKWTAPEALREKKFSTKSDVWSFGILLWEIYSFGRVPYPRIPLKDVVPRVEKGYKMDAPDGCPPAVYEVMKNCWHLDAAMRPSFLQLREQLEHIKTHELHL
c-Src
  Kd: 4 to 64 µM

B2: CHK-His6: GSGS linker and a polyhistidine tag attached to the C-terminus of the rat CHK sequence (protein)
chain: MPTQRWAPGTQCMTKCENSRPKPGELAFRKGDMVTILEACEDKSWYRAKHHSSGQEGLLAAAALRQREALSTDPKLSLMPWFHGKISGQEAIQQLQPPEDGLFLVRESARHPGDYVLCVSFGRDVIHYRVLHRDGHLTIDEAVCFCNLMDMVEHYTRDKGAICTKLVKPKRKQGAKSAEEELAKAGWLLDLQHLTLGAQIGEGEFGAVLQGEYLGQKVAVKNIKCDVTAQAFLDETAVMTKLQHRNLVRLLGVILHHGLYIVMEHVSKGNLVNFLRTRGRALVSTSQLLQFALHVAEGMEYLESKKLVHRDLAARNILVSEDLVAKVSDFGLAKAELRKGLDSSRLPVKWTAPEALKNGRFSSKSDVWSFGVLLWEVFSYGRAPYPKMSLKEVSEAVEKGYRMEPPDSCPGPVHTLMGSCWEAEPSRRPPFRKIVEKLGRELRSVGVAAPAGGQEAEGSAPTRSQDP
modifications: left off: … (GSGS linker and polyhistidine tag), C-terminal, kept
[1]
  oligomeric state: monomeric in aqueous solution

B3: 14-3-3β: recombinant 14-3-3β (protein, UniProt P31946 1-246, looked up)
14-3-3 protein beta/alpha: MTMDKSELVQKAKLAEQAERYDDMAAAMKAVTEQGHELSNEERNLLSVAYKNVVGARRSSWRVISSIEQKTERNEKKQQMGKEYREKIEAELQDICNDVLELLDKYLIPNATQPESKVFYLKMKGDYFRYLSEVASGDNKQTTVSNSQQAYQEAFEISKKEMQPTHPIRLGLALNFSVFYYEILNSPEKACSLAKTAFDEAIAELDTLNEESYKDSTLIMQLLRDNLTLWTSENQGDEGDAGEGEN
CHK; purified recombinant proteins
  level of CHK phosphorylation: negligible level
CHK; purified recombinant proteins (SFig. 4A)
  direct phosphorylation by CHK: CHK could directly phosphorylate all three protein substrates in vitro
